Common to all, as to test: ITC; ITC: 20 mM Tris pH 7.25, 100 mM KCl, 5 mM MgCl2, 1 mM DTT, 298 K; protein titrated into RNA
For orientation: Isothermal titration calorimetry measures the heat released or taken up as one component is titrated into another.

The target of one series is T1, HsLARP6(70-295) (Homo sapiens, UniProt Q9BRS8 70-295).
T1 sequence: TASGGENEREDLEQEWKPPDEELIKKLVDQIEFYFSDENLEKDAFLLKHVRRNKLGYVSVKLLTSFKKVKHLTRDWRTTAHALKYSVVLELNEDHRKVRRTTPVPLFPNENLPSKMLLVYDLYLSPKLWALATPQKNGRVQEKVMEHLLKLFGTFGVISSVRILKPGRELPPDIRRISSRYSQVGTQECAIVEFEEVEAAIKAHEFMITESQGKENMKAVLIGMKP
To be noted: protein: recombinant; tags: N-terminal His6 (TEV-cleavable); stem-loop with internal bulge.

Series [1] has as its target T2, HsLARP6 La module (70-300) (Homo sapiens, UniProt Q9BRS8 70-300).
T2 sequence: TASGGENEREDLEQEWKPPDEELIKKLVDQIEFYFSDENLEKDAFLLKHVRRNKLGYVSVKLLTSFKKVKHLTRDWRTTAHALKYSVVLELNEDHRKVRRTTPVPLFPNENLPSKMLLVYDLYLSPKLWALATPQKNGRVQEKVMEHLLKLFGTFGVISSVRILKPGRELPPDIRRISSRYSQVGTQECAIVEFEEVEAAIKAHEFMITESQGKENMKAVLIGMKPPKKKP
Conditions: protein: recombinant; tags: N-terminal His6, TEV-cleaved for initial ITC; stem-loop with internal bulge.

Another series addresses T3, HsLARP6(70-300) I260A (Homo sapiens, UniProt Q9BRS8 70-300, I260A).
T3 sequence: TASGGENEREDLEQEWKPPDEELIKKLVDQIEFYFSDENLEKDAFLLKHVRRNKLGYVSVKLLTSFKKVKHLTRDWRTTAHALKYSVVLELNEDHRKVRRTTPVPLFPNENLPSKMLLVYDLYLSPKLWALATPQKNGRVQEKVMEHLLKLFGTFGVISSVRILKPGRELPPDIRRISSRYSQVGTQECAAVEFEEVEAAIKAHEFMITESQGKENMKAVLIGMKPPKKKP
To be noted: protein: recombinant; tags: N-terminal His6 (TEV-cleavable); stem-loop with internal bulge.

For a further series, the target named is T4, HsLARP6(70-300) R245A (Homo sapiens, UniProt Q9BRS8 70-300, R245A).
T4 sequence: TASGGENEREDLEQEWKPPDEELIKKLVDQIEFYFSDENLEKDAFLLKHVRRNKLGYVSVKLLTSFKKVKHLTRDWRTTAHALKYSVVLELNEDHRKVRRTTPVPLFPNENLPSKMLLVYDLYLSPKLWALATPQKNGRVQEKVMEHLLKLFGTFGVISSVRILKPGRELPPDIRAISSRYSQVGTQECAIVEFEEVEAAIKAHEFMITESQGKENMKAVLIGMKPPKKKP
Conditions: protein: recombinant; tags: N-terminal His6 (TEV-cleavable); stem-loop with internal bulge.

For another series, the target named is T5, HsLARP6(70-300) W198A (Homo sapiens, UniProt Q9BRS8 70-300, W198A).
T5 sequence: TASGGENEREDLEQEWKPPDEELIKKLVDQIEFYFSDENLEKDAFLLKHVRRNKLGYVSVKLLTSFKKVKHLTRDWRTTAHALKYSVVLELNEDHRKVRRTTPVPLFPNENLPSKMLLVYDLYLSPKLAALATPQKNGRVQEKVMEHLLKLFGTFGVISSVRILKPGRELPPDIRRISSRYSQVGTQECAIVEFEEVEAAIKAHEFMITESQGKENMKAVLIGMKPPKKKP
To be noted: protein: recombinant; tags: N-terminal His6 (TEV-cleavable); stem-loop with internal bulge.

The target in a further series is T6, HsLARP6(70-300) W85A (Homo sapiens, UniProt Q9BRS8 70-300, W85A).
T6 sequence: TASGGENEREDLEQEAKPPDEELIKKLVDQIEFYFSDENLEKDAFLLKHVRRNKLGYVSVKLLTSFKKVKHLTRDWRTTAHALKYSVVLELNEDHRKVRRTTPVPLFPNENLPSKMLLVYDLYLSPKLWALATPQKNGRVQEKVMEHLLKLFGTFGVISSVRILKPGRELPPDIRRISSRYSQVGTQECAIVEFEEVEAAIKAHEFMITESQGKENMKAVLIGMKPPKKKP
To be noted: protein: recombinant; tags: N-terminal His6 (TEV-cleavable); stem-loop with internal bulge.

Another series deals with T7, HsLARP6 RRM1 (180-295) (Homo sapiens, UniProt Q9BRS8 180-295).
T7 sequence: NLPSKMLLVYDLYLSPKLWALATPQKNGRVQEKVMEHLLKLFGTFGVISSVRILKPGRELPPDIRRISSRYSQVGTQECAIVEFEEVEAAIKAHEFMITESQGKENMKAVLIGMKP
Conditions: protein: recombinant; tags: N-terminal His6 (TEV-cleavable); stem-loop with internal bulge.

A further series deals with T8, HsLARP6(70-300) K196A (Homo sapiens, UniProt Q9BRS8 70-300, K196A).
T8 sequence: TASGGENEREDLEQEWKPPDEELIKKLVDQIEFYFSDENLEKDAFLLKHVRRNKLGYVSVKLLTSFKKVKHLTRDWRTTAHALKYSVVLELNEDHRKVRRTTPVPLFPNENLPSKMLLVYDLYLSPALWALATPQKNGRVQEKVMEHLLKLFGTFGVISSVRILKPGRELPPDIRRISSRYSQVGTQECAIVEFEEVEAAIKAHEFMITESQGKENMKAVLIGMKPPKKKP
Conditions: protein: recombinant; tags: N-terminal His6 (TEV-cleavable); stem-loop with internal bulge.

For the molecule CCACAAAGAGUCUACAUGUCUAGGGUCUAGACAUGUUCAGCUUUGUGG (structured_RNA) [48 nt RNA (collagen alpha1(I) 5' UTR SL)], the dissociation constant (Kd) with HsLARP6(70-295) amounted to 77 nM; in series [1] it was 48 nM; in the series with HsLARP6(70-300) I260A it was 26 nM; in the series with HsLARP6(70-300) R245A, 36 nM; with HsLARP6(70-300) W198A it was 71 nM; in the series with HsLARP6(70-300) W85A, 22 nM. Also, the Kd in the series with HsLARP6(70-300) K196A turned out to be 48 nM. Also, in the series with HsLARP6 RRM1 (180-295), the binding result is recorded as “no binding”.

In general, Kd refers to the free concentration of one partner at which half of the binding sites on the other are occupied at equilibrium, for simple one-to-one binding.
